The values below are quoted from earlier work in PMC3951274.

Data set [1] deals with α1(I)127-138 THP 127-138 (Homo sapiens) (UniProt P02452).
In data set [2] the target is [α2(IV)454-465][α1(IV)437-448] heterotrimeric THP α2(IV)454-465, α1(IV)437-448 (Homo sapiens) (UniProt P02462).
Sequence of UniProt P02462 (P02462 173-1669, chain 1 of 2): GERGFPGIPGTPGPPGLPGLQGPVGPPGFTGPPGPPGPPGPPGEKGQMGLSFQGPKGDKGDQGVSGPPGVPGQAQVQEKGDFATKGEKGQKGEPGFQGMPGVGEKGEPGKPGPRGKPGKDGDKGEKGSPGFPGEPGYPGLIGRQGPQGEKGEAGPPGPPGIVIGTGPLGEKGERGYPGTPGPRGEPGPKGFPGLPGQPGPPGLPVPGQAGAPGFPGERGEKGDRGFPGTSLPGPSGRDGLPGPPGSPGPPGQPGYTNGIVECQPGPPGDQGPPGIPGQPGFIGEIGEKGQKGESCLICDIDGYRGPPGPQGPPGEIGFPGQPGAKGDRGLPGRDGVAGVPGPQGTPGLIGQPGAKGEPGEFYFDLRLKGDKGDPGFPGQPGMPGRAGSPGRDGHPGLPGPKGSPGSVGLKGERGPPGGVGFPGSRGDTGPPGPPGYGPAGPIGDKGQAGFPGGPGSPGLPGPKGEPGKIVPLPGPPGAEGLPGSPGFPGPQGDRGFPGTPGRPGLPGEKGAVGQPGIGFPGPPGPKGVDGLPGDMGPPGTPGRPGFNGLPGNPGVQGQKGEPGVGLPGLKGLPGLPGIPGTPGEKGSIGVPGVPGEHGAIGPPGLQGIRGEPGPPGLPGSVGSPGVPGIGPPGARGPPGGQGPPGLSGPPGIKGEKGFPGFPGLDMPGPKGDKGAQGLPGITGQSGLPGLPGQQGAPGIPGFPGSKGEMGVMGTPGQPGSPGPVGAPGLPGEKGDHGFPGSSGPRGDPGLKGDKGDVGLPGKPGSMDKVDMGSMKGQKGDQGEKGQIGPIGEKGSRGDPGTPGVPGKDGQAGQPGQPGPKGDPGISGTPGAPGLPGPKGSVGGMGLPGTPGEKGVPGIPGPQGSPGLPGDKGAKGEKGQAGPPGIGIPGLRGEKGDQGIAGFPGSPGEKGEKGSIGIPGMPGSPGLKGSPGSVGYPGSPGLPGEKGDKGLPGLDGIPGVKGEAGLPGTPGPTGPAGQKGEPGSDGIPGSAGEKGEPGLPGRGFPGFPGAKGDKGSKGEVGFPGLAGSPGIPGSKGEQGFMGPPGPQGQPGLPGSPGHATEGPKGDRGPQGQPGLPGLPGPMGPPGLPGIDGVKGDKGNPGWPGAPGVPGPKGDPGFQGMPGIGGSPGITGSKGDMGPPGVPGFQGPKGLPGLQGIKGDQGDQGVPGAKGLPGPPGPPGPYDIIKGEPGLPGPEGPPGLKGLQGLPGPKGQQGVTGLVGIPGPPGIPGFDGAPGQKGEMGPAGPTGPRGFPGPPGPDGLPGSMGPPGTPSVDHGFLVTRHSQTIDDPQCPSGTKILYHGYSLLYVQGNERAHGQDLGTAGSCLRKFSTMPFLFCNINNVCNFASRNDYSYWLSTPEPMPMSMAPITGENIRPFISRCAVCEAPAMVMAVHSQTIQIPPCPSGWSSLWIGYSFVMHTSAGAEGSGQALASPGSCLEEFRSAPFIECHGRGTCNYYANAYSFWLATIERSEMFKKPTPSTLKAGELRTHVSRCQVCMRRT
Sequence of UniProt P02462 (P08572 184-1712, chain 2 of 2, further chain): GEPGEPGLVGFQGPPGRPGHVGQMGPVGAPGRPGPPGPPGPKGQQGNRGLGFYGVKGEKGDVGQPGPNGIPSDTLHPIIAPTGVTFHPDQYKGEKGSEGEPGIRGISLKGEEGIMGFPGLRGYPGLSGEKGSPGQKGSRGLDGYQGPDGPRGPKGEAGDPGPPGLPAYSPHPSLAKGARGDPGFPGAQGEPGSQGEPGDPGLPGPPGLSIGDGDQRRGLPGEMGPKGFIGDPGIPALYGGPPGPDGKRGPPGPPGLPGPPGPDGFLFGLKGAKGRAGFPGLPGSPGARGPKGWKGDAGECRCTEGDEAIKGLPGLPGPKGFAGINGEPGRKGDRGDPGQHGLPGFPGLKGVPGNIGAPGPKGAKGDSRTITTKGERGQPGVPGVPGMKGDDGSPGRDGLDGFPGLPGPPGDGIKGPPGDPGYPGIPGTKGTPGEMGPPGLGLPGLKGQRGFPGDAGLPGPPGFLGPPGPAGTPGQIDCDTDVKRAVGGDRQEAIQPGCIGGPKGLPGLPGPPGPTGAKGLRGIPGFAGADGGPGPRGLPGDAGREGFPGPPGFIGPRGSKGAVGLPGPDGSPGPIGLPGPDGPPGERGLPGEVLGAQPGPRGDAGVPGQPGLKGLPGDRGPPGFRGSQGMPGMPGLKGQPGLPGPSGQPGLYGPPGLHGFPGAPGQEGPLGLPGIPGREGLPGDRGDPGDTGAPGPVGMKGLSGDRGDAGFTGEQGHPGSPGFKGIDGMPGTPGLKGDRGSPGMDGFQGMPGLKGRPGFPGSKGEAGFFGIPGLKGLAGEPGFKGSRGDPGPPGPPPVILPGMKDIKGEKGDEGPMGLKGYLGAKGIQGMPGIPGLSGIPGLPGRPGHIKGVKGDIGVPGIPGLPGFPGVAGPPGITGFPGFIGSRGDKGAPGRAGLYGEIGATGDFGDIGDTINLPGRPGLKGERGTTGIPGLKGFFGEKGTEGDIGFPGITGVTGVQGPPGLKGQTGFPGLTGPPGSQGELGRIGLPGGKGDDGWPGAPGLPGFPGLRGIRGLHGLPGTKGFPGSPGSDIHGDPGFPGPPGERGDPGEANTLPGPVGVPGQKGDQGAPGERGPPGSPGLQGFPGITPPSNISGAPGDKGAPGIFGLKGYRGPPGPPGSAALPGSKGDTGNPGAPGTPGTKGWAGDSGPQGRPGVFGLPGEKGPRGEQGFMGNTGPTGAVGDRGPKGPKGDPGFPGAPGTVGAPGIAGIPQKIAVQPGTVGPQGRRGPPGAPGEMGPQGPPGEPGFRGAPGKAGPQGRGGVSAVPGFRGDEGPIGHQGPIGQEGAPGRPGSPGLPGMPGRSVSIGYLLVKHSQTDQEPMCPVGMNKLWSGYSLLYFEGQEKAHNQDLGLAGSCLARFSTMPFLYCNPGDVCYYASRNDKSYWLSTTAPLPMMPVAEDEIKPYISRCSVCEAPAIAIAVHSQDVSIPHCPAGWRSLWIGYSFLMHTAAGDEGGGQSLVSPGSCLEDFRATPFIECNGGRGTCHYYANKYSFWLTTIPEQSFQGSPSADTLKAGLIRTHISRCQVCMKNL

Consider “integrin α2 I-domain (from UniProt P17301)”, for which the Kd in data set [1] is 400 nM.

With integrin α1β1 (from UniProt P56199), the dissociation constant Kd in data set [2] was 20 µM.
